In patent US20040126819A1:

Target: human wild type c-RET expressed in 3T3 fibroblasts (human) (UniProt P07949)
Assay: cell-based or functional assay

Chain of ^125I-GDNF (human GDNF from PeproTech EC Ltd. or rat GDNF from C. F. Ibanez) (ligand) (P39905 78-211): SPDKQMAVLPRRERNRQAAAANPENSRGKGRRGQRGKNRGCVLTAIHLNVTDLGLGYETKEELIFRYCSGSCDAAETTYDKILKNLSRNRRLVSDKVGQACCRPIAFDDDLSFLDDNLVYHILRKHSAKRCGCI
Chain of human wild type c-RET expressed in 3T3 fibroblasts (human) (P07949 29-1114): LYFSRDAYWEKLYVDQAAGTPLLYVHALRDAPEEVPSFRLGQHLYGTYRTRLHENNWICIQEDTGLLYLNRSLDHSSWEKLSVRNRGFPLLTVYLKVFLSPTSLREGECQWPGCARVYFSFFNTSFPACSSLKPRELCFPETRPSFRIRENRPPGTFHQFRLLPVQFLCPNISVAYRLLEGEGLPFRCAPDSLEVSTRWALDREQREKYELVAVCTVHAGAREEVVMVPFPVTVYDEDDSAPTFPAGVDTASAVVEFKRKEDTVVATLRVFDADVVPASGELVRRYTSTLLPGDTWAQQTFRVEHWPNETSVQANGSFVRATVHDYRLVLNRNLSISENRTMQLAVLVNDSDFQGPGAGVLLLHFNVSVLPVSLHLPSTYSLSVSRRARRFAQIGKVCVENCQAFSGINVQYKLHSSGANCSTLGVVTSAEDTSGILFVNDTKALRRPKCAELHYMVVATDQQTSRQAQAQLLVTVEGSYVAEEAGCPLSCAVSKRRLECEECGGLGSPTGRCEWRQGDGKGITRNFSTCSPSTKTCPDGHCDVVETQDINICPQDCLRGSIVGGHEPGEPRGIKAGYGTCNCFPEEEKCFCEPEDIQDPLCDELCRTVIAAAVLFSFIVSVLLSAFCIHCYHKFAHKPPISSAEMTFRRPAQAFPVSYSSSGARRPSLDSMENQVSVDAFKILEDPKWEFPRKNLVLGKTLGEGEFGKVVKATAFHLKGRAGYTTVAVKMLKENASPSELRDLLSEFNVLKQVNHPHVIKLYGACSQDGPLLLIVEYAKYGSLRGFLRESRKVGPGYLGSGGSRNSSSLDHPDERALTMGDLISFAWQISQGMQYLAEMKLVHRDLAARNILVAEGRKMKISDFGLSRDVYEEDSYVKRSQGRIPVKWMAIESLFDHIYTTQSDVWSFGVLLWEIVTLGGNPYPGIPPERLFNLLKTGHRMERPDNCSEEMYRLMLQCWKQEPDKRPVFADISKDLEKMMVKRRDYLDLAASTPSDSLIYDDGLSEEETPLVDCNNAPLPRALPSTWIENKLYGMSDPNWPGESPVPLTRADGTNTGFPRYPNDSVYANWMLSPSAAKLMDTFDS

tyrosine phosphorylation of c-RET in c-ret-3T3 cells, time course at 50 ng/ml GDNF: 5 min
tyrosine phosphorylation of the 160 kD c-RET isoform in c-ret-3T3 cells, dose-response, 5 min: > 25 ng/mL
Substance: ^125I-GDNF (human GDNF from PeproTech EC Ltd. or rat GDNF from C. F. Ibanez) (ligand)
